According to the supplement of paper PMC9112550, “Optimization of the antimicrobial peptide Bac7 by deep mutational scanning” (BMC Biology, 2022):

Test system: Escherichia coli TOP10
Experiment: shrunken log2 fold change of peptide-encoding DNA abundance (4.5 h post-induction vs induction); higher = less antimicrobial activity (less host growth inhibition)
Settings: time post-induction: 4.5 h; library: site-saturation at positions 5, 18, 19, 20
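Also: peptides expressed intracellularly from a pBAD plasmid library in pooled LB shake-flask culture, induced with 0.3% L-arabinose, DNA abundance read by NGS, three biological replicates, DESeq2 with apeglm shrinkage.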

| Sequence | shrunken log2 fold change |
| --- | --- |
| RRIRGRPPRLPRPRPRPRCLPRP | 0.706 |
| RRIRGRPPRLPRPRPRPRCRPRP | 0.957 |
| RRIRGRPPRLPRPRPRPRDEPRP | 0.293 |
| RRIRGRPPRLPRPRPRPRDPPRP | 1.32 |
| RRIRGRPPRLPRPRPRPREIPRP | 1.1 |
| RRIRGRPPRLPRPRPRPRFLPRP | 0.448 |
| RRIRGRPPRLPRPRPRPRGSPRP | 0.832 |
| RRIRGRPPRLPRPRPRPRHAPRP | 1.05 |
| RRIRGRPPRLPRPRPRPRISPRP | 0.353 |
| RRIRGRPPRLPRPRPRPRITPRP | 0.792 |
| RRIRGRPPRLPRPRPRPRKTPRP | 0.375 |
| RRIRGRPPRLPRPRPRPRLQPRP | 0.759 |
| RRIRGRPPRLPRPRPRPRLVPRP | 0.725 |
| RRIRGRPPRLPRPRPRPRMHPRP | 0.997 |
| RRIRGRPPRLPRPRPRPRMNPRP | 0.572 |
| RRIRGRPPRLPRPRPRPRMYPRP | 0.0954 |
| RRIRGRPPRLPRPRPRPRNNPRP | 0.346 |
| RRIRGRPPRLPRPRPRPRNPPRP | 0.52 |
| RRIRGRPPRLPRPRPRPRPAPRP | 1.07 |
| RRIRGRPPRLPRPRPRPRPRPRP | 1.31 |
| RRIRGRPPRLPRPRPRPRQWPRP | 0.585 |
| RRIRGRPPRLPRPRPRPRRTPRP | 0.67 |
| RRIRGRPPRLPRPRPRPRTCPRP | 0.592 |
| RRIRGRPPRLPRPRPRPRVHPRP | 0.666 |
| RRIRGRPPRLPRPRPRPRWYPRP | 0.271 |

| Sequence | shrunken log2 fold change |
| --- | --- |
| RRIRGRPPRLPRPRPRPRYKPRP | 0.247 |
| RRIRGRPPRLPRPRPRPSARPRP | 1.1 |
| RRIRGRPPRLPRPRPRPSDNPRP | -0.165 |
| RRIRGRPPRLPRPRPRPSDPPRP | 0.261 |
| RRIRGRPPRLPRPRPRPSEMPRP | 0.4 |
| RRIRGRPPRLPRPRPRPSESPRP | 0.504 |
| RRIRGRPPRLPRPRPRPSFVPRP | 0.0328 |
| RRIRGRPPRLPRPRPRPSIGPRP | 0.0763 |
| RRIRGRPPRLPRPRPRPSIPPRP | -0.137 |
| RRIRGRPPRLPRPRPRPSIQPRP | 0.176 |
| RRIRGRPPRLPRPRPRPSISPRP | 0.0894 |
| RRIRGRPPRLPRPRPRPSKDPRP | 0.0908 |
| RRIRGRPPRLPRPRPRPSLQPRP | 1.07 |
| RRIRGRPPRLPRPRPRPSLRPRP | 0.57 |
| RRIRGRPPRLPRPRPRPSMWPRP | 0.291 |
| RRIRGRPPRLPRPRPRPSNAPRP | 0.216 |
| RRIRGRPPRLPRPRPRPSNIPRP | 1.1 |
| RRIRGRPPRLPRPRPRPSPDPRP | 0.69 |
| RRIRGRPPRLPRPRPRPSPEPRP | 0.498 |
| RRIRGRPPRLPRPRPRPSQFPRP | 0.192 |
| RRIRGRPPRLPRPRPRPSQNPRP | 0.229 |
| RRIRGRPPRLPRPRPRPSQPPRP | 0.138 |
| RRIRGRPPRLPRPRPRPSRCPRP | -0.0851 |
| RRIRGRPPRLPRPRPRPSRQPRP | 0.133 |
| RRIRGRPPRLPRPRPRPSTSPRP | 0.315 |

| Sequence | shrunken log2 fold change |
| --- | --- |
| RRIRGRPPRLPRPRPRPSWFPRP | 0.373 |
| RRIRGRPPRLPRPRPRPSYDPRP | -0.0196 |
| RRIRGRPPRLPRPRPRPTAQPRP | 1.35 |
| RRIRGRPPRLPRPRPRPTDFPRP | 0.161 |
| RRIRGRPPRLPRPRPRPTERPRP | 0.675 |
| RRIRGRPPRLPRPRPRPTFGPRP | 0.404 |
| RRIRGRPPRLPRPRPRPTGVPRP | 0.742 |
| RRIRGRPPRLPRPRPRPTHYPRP | 0.525 |
| RRIRGRPPRLPRPRPRPTKPPRP | 0.0691 |
| RRIRGRPPRLPRPRPRPTKTPRP | 0.0741 |
| RRIRGRPPRLPRPRPRPTLMPRP | 0.815 |
| RRIRGRPPRLPRPRPRPTLTPRP | 1.1 |
| RRIRGRPPRLPRPRPRPTMAPRP | 1.24 |
| RRIRGRPPRLPRPRPRPTMRPRP | 1.44 |
| RRIRGRPPRLPRPRPRPTQDPRP | 1.34 |
| RRIRGRPPRLPRPRPRPTQFPRP | 0.772 |
| RRIRGRPPRLPRPRPRPTQHPRP | 0.855 |
| RRIRGRPPRLPRPRPRPTQVPRP | 0.353 |
| RRIRGRPPRLPRPRPRPTRAPRP | 1.04 |
| RRIRGRPPRLPRPRPRPTRIPRP | 0.901 |
| RRIRGRPPRLPRPRPRPTSRPRP | 0.336 |
| RRIRGRPPRLPRPRPRPTSVPRP | 0.197 |
| RRIRGRPPRLPRPRPRPTWHPRP | 0.468 |
| RRIRGRPPRLPRPRPRPVCTPRP | 0.73 |
| RRIRGRPPRLPRPRPRPVEIPRP | 0.177 |
